Laboratory results reported in the supplement of paper PMC10724198.
± gives the standard deviation of the averaged measurements.

The sequences below were run on Saccharomyces cerevisiae (assay: protein stability index of tFT-peptide fusion (C-terminal peptide) (PSI (0-1 scale)); higher = more stable (slower turnover)). Conditions: genetic background: wild type; temperature: 30 C.
Method: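 Multiplexed protein stability (MPS) profiling in S. cerevisiae. Random 12-aa peptides (tFT-X12 library) are fused to the C-terminus of a sfGFP-mCherry tandem fluorescent timer, after mCherry and a GGGS linker. Cells are FACS-sorted into 8 mCherry/sfGFP bins and deep-sequenced. The protein stability index (PSI) is the read-weighted bin average, scaled from 0 (unstable) to 1 (stable). Only peptides with >10 reads are reported; cells were grown at 30 °C in SC-His with glucose.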
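Further: PSI is a weighted mean of sequencing reads over stability bins, variants kept only with over 10 reads, mCherry proximal and sfGFP distal, peptide attached via GGGS linker.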

Going from PPHPPYPPQPSL to RVDAWLEGKTVR, the protein stability index rises from 0.7021 ± 0.005 to 0.734 ± 0.02.

VLWIVDLFACEG and FWCMLLAPFVNV are within error of each other in protein stability index: 0.585 ± 0.0037 for the first, 0.657 ± 0.11 for the second.

KCKLLKIMKKKE and HVTHPGCTLQLR are within error of each other in protein stability index: 0.636 ± 0.13 for the first, 0.707 ± 0.071 for the second.

First: SLCFSVFFPFFF
Second: VCVGCAACIVGV
The protein stability index of the first is lower: 0.5443 ± 0.0027 for the first, 0.636 ± 0.026 for the second.

RILLSPLSQSQP and RKKQYEKKSEKP are within error of each other in protein stability index: 0.695 ± 0.025 for the first, 0.689 ± 0.11 for the second.

Compared with SPYLRISGLVFC, VSYFARCLGSLA is higher in protein stability index: 0.557 ± 0.045 for the first, 0.629 ± 0.0011 for the second.

LSTCVAESIEST and PRRVGRLGAPMG are within error of each other in protein stability index: 0.68 ± 0.01 for the first, 0.719 ± 0.11 for the second.

First: GLGGNVLRVIFA
Second: LNGSRDEHKVMS
The protein stability index of the first is lower: 0.561 ± 0.021 for the first, 0.674 ± 0.022 for the second.

APLPRRQFPLSP and RLLLPSTLLPPR are within error of each other in protein stability index: 0.687 ± 0.011 for the first, 0.761 ± 0.13 for the second.

GAHATVPSMVTL and DAWPPVRTVVIN are within error of each other in protein stability index: 0.698 ± 0.092 for the first, 0.656 ± 0.071 for the second.

HSGAPFPPDSPR and FSVSLACYPSMC are within error of each other in protein stability index: 0.783 ± 0.16 for the first, 0.698 ± 0.075 for the second.

LPLPGSFTLNYP and PSPPPLLTRPLP are within error of each other in protein stability index: 0.733 ± 0.013 for the first, 0.713 ± 0.1 for the second.

First: QEESRARKGTQT
Second: PLALLHSHPPAN
The protein stability index of the first is lower: 0.627 ± 0.034 for the first, 0.677 ± 0.0066 for the second.

Going from CGFGVSHASRIF to CLTGSVLVICGN, the protein stability index falls from 0.78 ± 0.012 to 0.551 ± 0.06.

Compared with VGNPHKRGWRAR, SIECSLCYSLFD is higher in protein stability index: 0.60903 ± 0.00027 for the first, 0.663 ± 0.032 for the second.

RWCEWYDMNTII and LFSRDASSFRFF are within error of each other in protein stability index: 0.636 ± 0.02 for the first, 0.658 ± 0.032 for the second.

KDKRNEGSGLCK and LSCTTSSRPSPP are within error of each other in protein stability index: 0.645 ± 0.022 for the first, 0.699 ± 0.063 for the second.

PPTPPPVPPPWS and TAGPHPLSLPPP are within error of each other in protein stability index: 0.669 ± 0.044 for the first, 0.709 ± 0.033 for the second.

First: SPPPPPPHPSHP
Second: CLVRIIRREIKG
The protein stability index of the first is higher: 0.692 ± 0.027 for the first, 0.575 ± 0.018 for the second.

First: TTVESYLDRRRY
Second: CAEGMCCCRGVG
The protein stability index of the first is higher: 0.664 ± 0.035 for the first, 0.56 ± 0.013 for the second.

GVLGCNDGSVVE and PLPPPPVSLPAP are within error of each other in protein stability index: 0.663 ± 0.059 for the first, 0.617 ± 0.064 for the second.

LGCGDSRSMVSL and VGRGEEAHTPRR are within error of each other in protein stability index: 0.6875 ± 0.0033 for the first, 0.678 ± 0.013 for the second.

Compared with WDLPKTLCSKYT, VRPRSSSQRPTP is lower in protein stability index: 0.727 ± 0.013 for the first, 0.689 ± 0.011 for the second.

IVRTKLHPIGTS and VVWGAWGGWGCW are within error of each other in protein stability index: 0.655 ± 0.043 for the first, 0.726 ± 0.056 for the second.

Going from SHVPLPRAHSPP to TARAGRTASAPR, the protein stability index rises from 0.6702 ± 0.0034 to 0.7084 ± 0.0025.

HIEGRKHKDVAM and GLRFVPLPLRPV are within error of each other in protein stability index: 0.668 ± 0.062 for the first, 0.73 ± 0.029 for the second.

WCVLLMALFRWW and VLTSSVLPSFFP are within error of each other in protein stability index: 0.625 ± 0.025 for the first, 0.627 ± 0.018 for the second.

ALRLLLFISKSP and CDQVSDGSMGTV are within error of each other in protein stability index: 0.6119 ± 0.0013 for the first, 0.634 ± 0.04 for the second.

PPHTSPLSPRPP and HAKVFLMGCSYV are within error of each other in protein stability index: 0.658 ± 0.052 for the first, 0.692 ± 0.072 for the second.

SRKASWECVRGG and ATGHQMTMYDNR are within error of each other in protein stability index: 0.699 ± 0.015 for the first, 0.708 ± 0.069 for the second.

Compared with GYSFWSCVAFFS, VLDCRDVSCHVL is higher in protein stability index: 0.628 ± 0.0068 for the first, 0.661 ± 0.0081 for the second.

DWAGGKMESVYR and VGKIRWIGFGGW are within error of each other in protein stability index: 0.66 ± 0.011 for the first, 0.695 ± 0.051 for the second.

LRPPFFLSPLPS and GVEGLGAFVTVQ are within error of each other in protein stability index: 0.728 ± 0.034 for the first, 0.702 ± 0.0089 for the second.

LVLLPSASPLLL and FVLRCLGLVLPV are within error of each other in protein stability index: 0.71 ± 0.044 for the first, 0.593 ± 0.077 for the second.

First: NNSCPQGHPDAR
Second: LSPSGATFWTPS
The protein stability index of the first is higher: 0.7574 ± 0.0065 for the first, 0.676 ± 0.055 for the second.

DRTITPSSVISL and STGLRISPPAYM are within error of each other in protein stability index: 0.705 ± 0.047 for the first, 0.677 ± 0.0069 for the second.

PFFHFLGFSYFC and NKKTKNNKGNKQ are within error of each other in protein stability index: 0.684 ± 0.024 for the first, 0.728 ± 0.063 for the second.

Going from PRLPGPAAIARR to VWAVGRATARER, the protein stability index rises from 0.6714 ± 0.004 to 0.6969 ± 0.0025.

LLICRLFLFTIW and GGGAIFDRLLCL are within error of each other in protein stability index: 0.555 ± 0.12 for the first, 0.6545 ± 0.0049 for the second.

Going from SLIFVSLLGAYD to PPSRPSASFALL, the protein stability index rises from 0.623 ± 0.056 to 0.743 ± 0.026.

HLSSPPSLLPPP and TGWSRTTVGFAT are within error of each other in protein stability index: 0.657 ± 0.05 for the first, 0.711 ± 0.046 for the second.

Compared with FFSFYPVYPLSA, LGSFGLASVDGL is higher in protein stability index: 0.527 ± 0.021 for the first, 0.713 ± 0.02 for the second.

Going from LSLICSLVHSIM to VPVMVVCVPSKE, the protein stability index rises from 0.635 ± 0.016 to 0.715 ± 0.035.

GGGERLDDIVGG and PPRTPFSLPPPA are within error of each other in protein stability index: 0.801 ± 0.081 for the first, 0.73 ± 0.054 for the second.

Compared with SIVLRNRSGDIL, WFRMTFLSPLHD is higher in protein stability index: 0.63 ± 0.061 for the first, 0.797 ± 0.044 for the second.

Going from PLPCLPPAGSTP to QPYHSSPSPRTI, the protein stability index falls from 0.818 ± 0.02 to 0.717 ± 0.073.

WVMREIVFGSLY and PPPTPRPAFLPP are within error of each other in protein stability index: 0.698 ± 0.017 for the first, 0.6969 ± 0.0037 for the second.

EGDKGGGEQKRQ and CLSPSSHLPSVT are within error of each other in protein stability index: 0.688 ± 0.031 for the first, 0.685 ± 0.021 for the second.

GKPFAWVAVVGD and PKKNQSKQRKKT are within error of each other in protein stability index: 0.729 ± 0.051 for the first, 0.708 ± 0.05 for the second.
